Test results reported in PMC5004165.

Molecular target: T1, NF-kB p50 homodimer (UniProt P19838)
T1 sequence: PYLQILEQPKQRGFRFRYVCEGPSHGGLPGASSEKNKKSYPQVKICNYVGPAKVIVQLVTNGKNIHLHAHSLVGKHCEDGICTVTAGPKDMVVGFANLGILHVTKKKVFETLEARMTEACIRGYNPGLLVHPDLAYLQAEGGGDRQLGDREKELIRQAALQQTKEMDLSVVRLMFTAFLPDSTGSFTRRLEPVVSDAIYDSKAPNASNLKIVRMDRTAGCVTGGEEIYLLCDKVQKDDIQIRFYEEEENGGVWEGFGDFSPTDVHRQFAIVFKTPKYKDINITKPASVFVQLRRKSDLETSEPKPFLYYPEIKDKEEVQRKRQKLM
Assay: SPR
Details: EMSA: 10 mM Tris-HCl pH 7.5, 50 mM NaCl, 1 mM DTT, 1 mM EDTA, BSA (printed 10 mg/mL), 1% NP-40, 5% glycerol, poly(dI-dC), 20 C 45 min, SPR: 10 mM Tris-HCl pH 7.; for binding signal (% of unplatinated plateau): steady state

[1] = transplatin adducts, 1 per duplex, global
[2] = BBR3464 adducts, 1 per duplex, global

CCTACCAAGTCTGAGGGGACTTTCCCAGGC (double strand) [DUPLEX-kB(SPR-BIO) transplatin]
binding signal (% of unplatinated plateau) [1]: 88 | Kd [1]: 1.99 nM

CCTACCAAGTCTGAGGGGACTTTCCCAGGC (double strand) [DUPLEX-kB(SPR-BIO) BBR3464]
Kd [2]: 3.99 nM | binding signal (% of unplatinated plateau) [2]: 21

CCTACCAAGTCTGAGGGGACTTTCCCAGGC (double strand) [DUPLEX-kB(SPR-BIO)]
Kd: 1.96 nM

CCTACCAAGTCTGAGGGGACTTTCCCAGGC (double strand) [DUPLEX-kB(SPR-BIO) cisplatin]
Kd (cisplatin adducts, 1 per duplex, global): 2.38 nM
